From PMC3580866

Legend:
[1] = molecular target: human SLBP (hSLBP), Stem-Loop Binding Protein RNA binding domain (RBD/RPD) (UniProt Q14493); assay: mass spectrometry of oligomer peaks; conditions: reference: bacterially expressed unphosphorylated RBD; sites T171
[2] = molecular target: human SLBP RNA binding domain, unphosphorylated, bacterially expressed (human); assay: MALDI-TOF mass spectrometry
[3] = molecular target: human SLBP RNA binding domain, phosphorylated at Thr171, baculovirus expressed (human); assay: electrospray mass spectrometry

Substance: human SLBP (hSLBP), Stem-Loop Binding Protein RNA binding domain (RBD/RPD) (from UniProt Q14493) baculovirus-expressed phosphorylated RBD
- other: percent of mass as dimer [1]: weaker; reference 35.3

Substance: human SLBP RNA binding domain, unphosphorylated, bacterially expressed (domain or fragment)
- percent of the mass spectrum as dimer [2]: 35.3%
- percent of the mass spectrum as hexamer [2]: 9.7%
- percent of the mass spectrum as tetramer [2]: 12.4%
- percent of the mass spectrum as trimer [2]: 9.9%

Substance: human SLBP RNA binding domain, phosphorylated at Thr171, baculovirus expressed (domain or fragment)
- percent of the mass spectrum as dimer [3]: 5.6%
- percent of the mass spectrum as tetramer [3]: 3.8%
- percent of the mass spectrum as trimer [3]: 3.9%
